Target: T1, RANK-L (UniProt O14788 140-317, limits assumed)
T1 sequence (looked up): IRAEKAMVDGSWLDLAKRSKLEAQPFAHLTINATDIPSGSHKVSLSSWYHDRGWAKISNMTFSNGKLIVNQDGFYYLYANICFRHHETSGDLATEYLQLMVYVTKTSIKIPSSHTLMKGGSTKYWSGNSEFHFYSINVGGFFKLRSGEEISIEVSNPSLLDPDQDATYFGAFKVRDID
Experiment: polarization anisotropy at steady state, 1 ug/mL Alexa568 TNF with increasing concentrations of RANK-L, 1 hour at 37 C
Procedure: This assay necessitated a fluorescently labeled TNF trimer that at limiting concentrations could be used as a tracer to monitor exchange. We generated a TNF variant (R31C/C69V/C101A) and specifically labeled it with Alexa568 maleimide at the R31 position. Polarization anisotropy measures heterotrimer formation at steady-state. We mixed 1 ug/mL Alexa568 TNF either alone (open circles) or with increasing concentrations of RANK-L (open squares), PEG20k-A145R/Y87H TNF, PEG5k-A145R/Y87H, or A145R/Y87H in PBS/0.02% igepal for 1 hour at 37 C. These reactions were placed into the spectroscopic instrument-and the steady-state anisotropy was measured. […] (FIG. 8B) Addition of surfactant excipients catalyzes the exchange between TNF homotrimers. We mixed together 1 ug/mL Alexa568 TNF alone (open circles) or with 100 ug/mL PEG-5k A145R/I97T TNF (closed circles) in a 96-well assay format and began anisotropy measurements. After ˜2000 seconds the instrument was paused and 0.5% polysorbate-20 or polysorbate-80 were added and the measurement was resumed.

binding result: no binding
B1: Alexa568 TNF (TNF variant R31C/C69V/C101A labeled with Alexa568 maleimide) (ligand, human, UniProt P01375 77-233, looked up)
chain: VRSSSRTPSDKPVAHVVANPQAEGQLQWLNCRANALLANGVELRDNQLVVPSEGLYLIYSQVLFKGQGVPSTHVLLTHTISRIAVSYQTKVNLLSAIKSPAQRETPEGAEAKPWYEPIYLGGVFQLEKGDRLSAEINRPDYLDFAESGQVYFGIIAL
modifications: Alexa568 maleimide at the R31 position (Cys of R31C)
notes: extracellular domain; Fluorescent tracer homotrimer
